For the test, the target named is T1, human asialoglycoprotein receptor 1 (ASGR1) (human, UniProt P07306 1-291).
T1 construct: whole, on cells; The cells were fixed in formaldehyde before staining; also called hASGR1; HL-1
T1 sequence (looked up): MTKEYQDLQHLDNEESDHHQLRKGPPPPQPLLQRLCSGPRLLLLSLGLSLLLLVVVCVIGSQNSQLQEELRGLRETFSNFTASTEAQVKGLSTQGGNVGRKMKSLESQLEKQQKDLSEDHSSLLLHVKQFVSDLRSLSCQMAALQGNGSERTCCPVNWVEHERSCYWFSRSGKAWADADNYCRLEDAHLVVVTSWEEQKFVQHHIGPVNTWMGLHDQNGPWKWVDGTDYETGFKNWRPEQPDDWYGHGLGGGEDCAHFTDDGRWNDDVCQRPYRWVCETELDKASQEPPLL
Put plainly: immunofluorescence on formaldehyde-fixed Hep3B or HepG2 cells, Alexa488 anti-human IgG secondary, high-content imaging. The procedure: The siRNA molecules in Tier 1 and Tier 2 screening sets were synthesized without chemical modifications. Each siRNA molecule was comprised of a 21 nucleotide sense strand and 21 nucleotide antisense strand that hybridized to form a duplex region of 19 base pairs with a 2 nucleotide overhang at the 3' end of each strand. The efficacy of each of the siRNA molecules in reducing ASGR1 expression was assessed using a 384-well format in vitro immunoassay, which quantifies levels of ASGR1 protein on the cell surface of Hep3B or HepG2 cells.
Transfection complexes of the siRNA molecules and RNAiMax transfection reagent (Life Technologies) in EMEM media (ATCC 30-2003) were prepared in 384-well plates in accordance with manufacturer's recommendations. Human hepatocellular carcinoma Hep3B (ATCC HB-8064) or HepG2 (ATCC HB-8065) cells in EMEM media supplemented with 10% fetal bovine serum and 1% antibiotic/antimycotic were added to each well. Cells were incubated for 4 days at 37° C. and 5% CO_2. […] Data was analyzed using Columbus image analysis software and GeneData Screener software to quantify several measures of ASGR1 protein levels, cell count, and cell morphology on a per cell and per well basis.

B1: anti-ASGR1 primary antibody (Amgen clone 7E11) (antibody, human IgG1, kappa, N297G, V domains shown)
VH: QVQLVESGGGVVQPGRSLRLSCAASGFTFSSFGMHWVRQAPGKGLEWVAIIWHDGSNKYYADSVKGRFTISRDNSKNTLYLQMSSLRAEDTAVYYCARDLSMGGMDVWGQGTTVTVSS
VL: DIQMTQSPSSLSASVGDRVTIACRASQNIISYLNWYQQKPGKAPKFLIYTASSLQSGVPSRFSGSGSGTDFTLTISSLQPEDFAIYYCQQTYSTPLTFGGGTKVEIKR
notes: It was used as a staining reagent and detected with an Alexa488-conjugated anti-human IgG secondary antibody
For B1, the binding result is given as “binds”.

The values above are taken from patent US12723248 (Amgen, dated 2026).
